# In the supplement of paper PMC12042874:
# ± gives the uncertainty stated by the source.
# Test: amyloid nucleation score (Sup35N fusion, yeast selection) (log enrichment); library NNK1; higher = more nucleation; inactive = no reads after selection
# In short: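 On medium lacking adenine and uracil, psi-negative yeast expressing peptides of 20 random codons fused to Sup35N were grown 7 days at 30°C after a 24-hour induction with 100 μM copper sulfate. Illumina sequencing of input and output plasmid inserts gave the reads, and sequences under 100 input reads were excluded. The nucleation score is the DiMSum log enrichment of output over input reads, centred on the mode score of non-aggregating sequences.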
row,Substance,amyloid nucleation score
1,YLWSSCLGGDSANWLLY,0.714 ± 0.32
2,TSWGNVDGCYNGRTLVLLDF,-0.316 ± 0.67
3,IRMGCNVHREEVSFTVLAVH,0.409 ± 0.66
4,RGILLSPSLLVYRLTT,-0.096 ± 1.2
5,MKVDNSVLMPATTHQRNMQG,-0.211 ± 0.67
6,ICTSSTKGRLCRSCPLASRL,0.205 ± 0.38
7,CLEFLG,-0.526 ± 0.49
8,ISVHHFR,0.282 ± 0.57
9,NQVENTWCMSLRLFSYSHTL,7.548 ± 0.058
10,LCFSGD,-0.352 ± 0.99
11,CWDSNALADGCAWYKVLMDI,0.229 ± 0.35
12,VCKGSHWFIYLRNGFKSPSV,1.46 ± 0.65
13,KVFINVYIKRQRNKCRRSNR,5.899 ± 0.054
14,VWFVVGGGE,1.7 ± 0.42
15,WPCKAFFSSAGLRYGVNLA,-0.833 ± 0.9
16,NLVWSYFLLGTDSYITTYDW,0.314 ± 0.79
17,SWYCGTASLVAKAVADRAGD,0.062 ± 0.5
18,NLPSSKKVLPCFFLRSIYGC,0.9 ± 0.4
19,IFVVMQTIFMWLDSWADQSL,0.391 ± 0.35
20,RMERGKNLQMWEGQEVGAEN,-1.19 ± 0.77
21,GAFAFQKL,0.358 ± 1.1
22,MLEGMRRWNNIALVVIRGVG,-0.556 ± 1.1
23,PVDNLFNFLSGSCAISNFQK,0.638 ± 0.58
24,YSISFSYHGVVCGSGSNRGV,-0.589 ± 0.63
25,LKTRALASGWEAECADRGGV,-0.056 ± 0.64

row,Substance,amyloid nucleation score
1,ARGHGFQPVGPLGSVILMAR,-0.302 ± 0.68
2,LEILL,0.145 ± 0.45
3,EVIIIGRSIIVLGMGGTKFW,1.72 ± 0.24
4,CYNTRVPFGMPLKRTPYRSR,-0.509 ± 1.1
5,TTIRYNVLRAPMLCIIILMN,-0.607 ± 0.58
6,ITYIGWQGSNLYWLFTTTLV,-1.12 ± 1.9
7,YSDPYAKWNDQR,0.784 ± 0.76
8,AVCSMKKSVMYELNVGFTYR,inactive
9,YTVLEGGALCFLKELRHRIL,-0.146 ± 0.32
10,VDVAVVDTNLSLNMACKGWT,1.21 ± 0.45
11,RLAWPRKSSSCN,0.774 ± 0.45
12,NLTWAGTLY,-0.875 ± 1.5
13,KSQVVMRDVEPATNIV,-0.153 ± 0.69
14,IGENCRWRMSSRCGFNGNDT,-0.37 ± 0.43
15,FIIVEECNFRNRRLTYRLFI,0.816 ± 0.49
16,RYNTPNGVYICLNA,-1.03 ± 0.39
17,VKQSST,0.212 ± 0.66
18,RSRNSPTR,-0.027 ± 0.37
19,FNKTSMVSGNQLRVLVLVNI,1.08 ± 0.59
20,MSNIVALHCGSFFTDYECIW,7.608 ± 0.046
21,NLTFGYVGHK,3.91 ± 0.087
22,NTSDDYIDLRYNHKGEAFEG,inactive
23,SKMCY,-0.692 ± 0.43
24,YVIKKWTTCVLDFWHHFSFR,0.583 ± 0.48
25,ESARCVRVTALSLWHRDQRS,1.02 ± 0.8

row,Substance,amyloid nucleation score
1,NMHLTYETDRFARYVNSKFN,0.744 ± 0.46
2,LSVVVDRVLDNCLIGLYNAG,0.174 ± 0.28
3,LWPKVLMVFTSM,1.67 ± 0.15
4,LSCWTCNRFYRGGLLVCMYP,-0.713 ± 0.46
5,SIRLPVIKRSRL,-0.109 ± 0.66
6,VGYEVLSHYDAGIVSLVYLS,0.645 ± 0.53
7,CSRTMTWYP,-1.14 ± 1.3
8,RLYPQYLNFKVCKFGSLDGG,-0.836 ± 0.31
9,VSGVYLRFRASCRSY,-0.105 ± 0.58
10,GETRVLHDKVGRKFGLCKDF,0.32 ± 0.41
11,AVLIRSGCRIRNRRHG,0.782 ± 0.75
12,LNCLFLFSISAFRVLASHIM,0.448 ± 0.42
13,VAATDWVGNHKS,1.28 ± 0.55
14,VGTDLNETVG,-0.646 ± 1.5
15,YVRRSCSSRESYSCNCLYVY,0.532 ± 0.92
16,YRTSWEAVQGWSFS,-1.64 ± 1.3
17,DISMLRKKSCKHTVNMMSL,-0.431 ± 0.27
18,VYNWRLMEYHRGWDHFCYLS,-0.559 ± 0.33
19,RMVLPVSNLFCAFPGTGGGS,-0.577 ± 0.32
20,LCGHF,4.35 ± 0.051
21,CSSRVRMTRQLVKLVNICMR,-0.122 ± 0.97
22,RTVTWEMQKVDWSLWSCRWL,2.56 ± 0.17
23,ISICYRIEKRE,inactive
24,YGSLFED,0.108 ± 0.77
25,KCTLYLQFNIEHGCAIFEDK,2.06 ± 0.64

row,Substance,amyloid nucleation score
1,KYCVN,-0.403 ± 0.38
2,IAYKPLTWSSWEGSISIIRV,0.149 ± 0.4
3,DVVSFSKVCVVCGLSWSASY,6.662 ± 0.06
4,VGHPKVFWDGVGSRTILERS,0.48 ± 0.74
5,DRNYVGELTEFTGVMGRGRQ,-0.858 ± 1.1
6,SVNRLTLKPSYAKYRVYSGH,0.46 ± 0.68
7,SVSVSCFVV,inactive
8,IRSLITMVGTGLGPLAR,0.876 ± 0.4
9,TVKCILYSRFHKGCGWRCER,3.15 ± 0.14
10,RCHTLFIVSLYRRVRNHMSC,0.558 ± 0.79
11,LRCKMYSMWKTSYFTVMLGG,-0.261 ± 0.44
12,RKLFAY,inactive
13,YFAVL,inactive
14,PWFIYDSLGFNSRCRSHLIK,-0.069 ± 0.88
15,FLGMIFTELSINMKVSRRP,-1.12 ± 1.2
16,FNFNFRRFYHVRGFDSRSHL,0.473 ± 0.58
17,GSRNCIWLFFVVWV,inactive
18,LKCFRLS,0.327 ± 0.55
19,NPPWQCGVRHDHLWVTSYHS,-0.481 ± 0.32
20,PRVQRPPKVRTAELTTGPSQ,-0.423 ± 0.37
21,DYVHFMCHGLGR,-0.185 ± 0.63
22,KWSVSV,-0.32 ± 1.3
23,HSDSNWIVDVLHSLYDKWLV,0.913 ± 0.5
24,MHTKRTTDNKYGSY,-0.208 ± 0.38
25,RSSCKTTLEIIGVLRMRVYA,0.769 ± 0.45

row,Substance,amyloid nucleation score
1,QIKVTGRRSSDEGSQGGWLL,3.82 ± 0.081
2,YQSHLAIFFRDGHRSSKITN,-0.008 ± 1.2
3,DSSYKWWTYFWGA,-0.267 ± 0.42
4,PDWCLMVLLCGLVCIYVDLN,0.22 ± 1.1
5,SEMSLSRDSCLLSIV,0.141 ± 0.18
6,IETWCVKWFH,-0.299 ± 0.32
7,NCFRLLCFRGLVGQRGL,0.141 ± 0.59
8,NCEFIVWGVSSNFEMVFGLM,-0.267 ± 0.9
9,WEDSGVIFLMVCCSVYLGNL,2.66 ± 0.12
10,FWSVYKT,0.744 ± 0.27
11,DYTILYVVWILCGIKMSVVI,0.699 ± 0.66
12,KIPYVFFGKRTGVSLFRMFD,0.202 ± 0.56
13,NSFSDAYKIVYLHIYRSGGI,-0.448 ± 0.6
14,SLLRARIKVVPV,-1.46 ± 1.6
15,HRILRESRAGRF,-0.396 ± 0.36
16,CSHRM,0.707 ± 0.51
17,IYACRGQRVMRTRIKCVVIW,0.525 ± 0.72
18,NWMCKHSVGP,0.665 ± 0.72
19,KSPRVSVGTASVSWRKKFTW,0.2 ± 0.74
20,HGMIRWYSYTSCHSYKVSGH,-0.021 ± 0.33
21,TLLWFNEFILSGPNFRIGVV,0.857 ± 0.58
22,LGYKSGVFLWGFRFHP,-1.35 ± 2.1
23,IVVFSIYYVCSDGGPRVTRR,1.43 ± 0.3
24,SLVLRRLYEVSVTCTAGNAW,0.094 ± 0.98
25,GIKRHIEDCLV,1.04 ± 0.46

row,Substance,amyloid nucleation score
1,APLYLHMWSCYSLMLSPSMG,-1.5 ± 2.4
2,FNNPKCHSWLDRMVWLMWLA,0.343 ± 0.61
3,TDRMGIQCGRVSLRSRYIRC,-0.198 ± 0.87
4,SSGVFTSI,-0.042 ± 0.66
5,SEIPVNGLARLCRGRYRNRQ,4.66 ± 0.11
6,FIFHSIGRSKISYKS,-0.229 ± 0.59
7,RTCDIRSLHPTTEGSETCGR,0.306 ± 0.56
8,AVSIWSPRIGVCETFQLDVV,-0.573 ± 0.57
9,PEGWYLTNCRAGRFSSR,-0.222 ± 0.39
10,MKDVILRTWYLRQGEGWGAS,0.026 ± 0.4
11,HRRNMAKC,inactive
12,ECPRVSLASGDVE,1.17 ± 0.66
13,TASNDYLDIDPSMDQSRWCG,0.518 ± 0.27
14,MMGNNQRSPYDMDREASITF,0.64 ± 0.43
15,KLYLVVRMTGQPPSGMACVL,0.142 ± 1.2
16,DLTVWSTIFDSMSTCEHRGG,0.257 ± 0.42
17,IRQQFKCYGEFCATM,-0.587 ± 1.2
18,FLCSIISYS,5.572 ± 0.048
19,GFYDRYVNAGMECAGPSSQR,5.24 ± 0.079
20,AVSSYYVERRYLNLQGANRY,3.22 ± 0.15
21,SPFDKIVAHGSRLML,-0.274 ± 0.64
22,KAFRMLGGFNSYRNFNIILK,3.96 ± 0.079
23,EMYKSVP,0.109 ± 0.48
24,FLEKSFLCSWSLVRTEGEWA,-0.333 ± 0.57
25,LGMIADYQKQKMMSSGTSLR,0.289 ± 0.69

row,Substance,amyloid nucleation score
1,NVRRLIFIMLKLDAICYWSS,-0.695 ± 1.1
2,DGSVFFKADRVPLRSSNGGI,1.2 ± 0.52
3,SLRSQCGSVNLIFMVMFSVW,-0.236 ± 1.2
4,YVLRPFGLLKWSNSVGPHER,-0.106 ± 1.2
5,WKKGRMMIKSQSGGLSQVWG,1.05 ± 0.59
6,TLLELLCEWNTVHKGSP,0.699 ± 0.3
7,EYGDDVLWMFSTILCVRGEW,-0.626 ± 0.47
8,NHYGSVAGLPPNNHWVSFCV,-0.373 ± 0.99
9,CQVPGSRRHRRSIRERQNWN,1.32 ± 0.62
10,CFCFKPSVKE,-1.71 ± 2.4
11,VSFTSIHMVIEDLRIKLNPA,-0.426 ± 0.71
12,GHIDAQWPRFRCHMA,0.147 ± 0.32
13,LVLHNVDELYINSSHF,0.77 ± 0.5
14,NSFRAAHWSEMVPAELGRSV,-0.513 ± 0.41
15,DFCVPHGNCFLA,-0.747 ± 0.48
16,IRIWSSREGFASIVWTCLMG,-0.32 ± 0.54
17,CRLKH,0.123 ± 0.3
18,VYAYTRY,0.194 ± 0.68
19,SSITVITVATQVEYNTVHDF,1.37 ± 0.45
20,LCSIN,-0.876 ± 0.99
21,AGFSTHSSGCVGECVGQRT,0.32 ± 0.69
22,LGHIILSAFFYRSFNLEVSL,inactive
